The source of these data is PMC11870023, “A facile assay for zDHHC palmitoyl transferase activation elucidates effects of mutation and modification” (Journal of Lipid Research, 2025).

Substrate in this data set: CC(C)(COP(=O)(O)OP(=O)(O)OC[C@H]1O[C@@H](n2cnc3c(N)ncnc32)[C@H](O)[C@@H]1OP(=O)(O)O)[C@@H](O)C(=O)NCCC(=O)NCCSC(=O)CCCCCCCCCCCCCCCNc1ccc([N+](=O)[O-])c2nonc12
In words: auto-S-palmitoylation of HEK293 membranes, SDS-PAGE fluorescence normalised to tag Western blot. The format is cell-based, Homo sapiens. As to conditions: pH 7.4, 37 °C, 2 min, labelled compound, covalent thioester at active-site Cys. From the text: auto-S-palmitoylation of HEK293 membranes, SDS-PAGE fluorescence normalised to tag Western blot on human zDHHC14 | L215S mutation within the third transmembrane segment of zDHHC14 (Fig. 4A) substantially diminished auto-S-palmitoylation
(Immunoblotting shows a protein as a band on a membrane.)

B1: human zDHHC14 (Homo sapiens; L215S) (protein)
chain: MPPGGGGPMKDCEYSQISTHSSSPMESPHKKKKIAARRKWEVFPGRNKFFCNGRIMMARQTGVFYLTLVLILVTSGLFFAFDCPYLAVKITPAIPAVAGILFFFVMGTLLRTSFSDPGVLPRATPDEAADLERQIDIANGTSSGGYRPPPRTKEVIINGQTVKLKYCFTCKIFRPPRASHCSLCDNCVERFDHHCPWVGNCVGKRNYRFFYMFISSLSFLTVFIFAFVITHVILRSQQTGFLNALKDSPASVLEAVVCFFSVWSIVGLSGFHTYLISSNQTTNEDIKGSWSNKRGKENYNPYSYGNIFTNCCVALCGPISPSLIDRRGYIQPDTPQPAAPSNGITMYGATQSQSDMCDQDQCIQSTKFVLQAAATPLLQSEPSLTSDELHLPGKPGLGTPCASLTLGPPTPPASMPNLAEATLADVMPRKDEHMGHQFLTPDEAPSPPRLLAAGSPLAHSRTMHVLGLASQDSLHEDSVRGLVKLSSV
notes: full length, His6-Myc tag kept (pCEpuro-His6-Myc-1), HEK293 membrane fraction
As to B1, the Km (in general, the substrate concentration at which the rate is half of its maximum) was found to be 4.46 ± 2.66 µM.
